This assay concerns the target B7-H4 purified monomeric recombinant human protein (Homo sapiens, UniProt Q7Z7D3). As to the kind of experiment: SPR. On the technique in general: Surface plasmon resonance follows binding to a sensor surface in real time, without labels.

In general, Kd refers to a measure of binding affinity in units of concentration. Broadly, the koff is a measure of how fast the partners let go of each other. Usually kon stands for a measure of how fast the partners come together.

Sequence of B7-H4 purified monomeric recombinant human protein (Q7Z7D3 25-259): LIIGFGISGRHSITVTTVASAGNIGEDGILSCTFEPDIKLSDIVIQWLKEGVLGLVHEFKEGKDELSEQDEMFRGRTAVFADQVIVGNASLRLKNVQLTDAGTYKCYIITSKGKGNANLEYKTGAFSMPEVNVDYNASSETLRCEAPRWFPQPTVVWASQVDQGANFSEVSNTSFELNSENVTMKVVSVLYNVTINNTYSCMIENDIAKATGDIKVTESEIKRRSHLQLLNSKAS

B1: A01 (scFv, V domains shown)
VH: EVQLVESGGGVVQPGRSLRLSCAASGFTFSNKAMNWVRQAPGKGLEWVSAISGSGATTYYADSVKGRFTISRDNSKNTLYLQMNSLRAEDTAVYYCARKRWYGMDVWGQGTTVTVSS
VL: SYELTQPPSVSVAPGKTARITCGGNNIGSKSVHWYQQKPGQAPVLVVYDDSDRPSGIPERFSGSNSGNTATLTISRVEAGDEADYYCQVWDRGMIFGTGTKLTVL
Turning to B1, the Kd came out at 0.224 nM, the koff is 3.7e-05 s⁻¹ and the kon came to 170000 M⁻¹ s⁻¹.

B2: A08 (scFv, V domains shown)
VH: EVQLVESGGGVVQPGRSLRLSCAASGFTFGDRAMNWVRQAPGKGLEWVSAISSSGTTSYYADSVKGRFTISRDNSKNTLYLQMNSLRAEDTAVYYCARKRWYGMDVWGQGTTVTVSS
VL: SYELTQPPSVSVAPGKTARITCGGNNIGSKSVHWYQQKPGQAPVLVVYDDSDRPSGIPERFSGSNSGNTATLTISRVEAGDEADYYCQVWDRGMIFGTGTKLTVL
For B2, the Kd is 0.043 nM, the koff was found to be 1.3e-05 s⁻¹ and the kon was 310000 M⁻¹ s⁻¹.

B3: B02 (scFv, V domains shown)
VH: EVQLVESGGGVVQPGRSLRLSCAASGFTFSSRSMNWVRQAPGKGLEWVSAISGSGSTVYYADSVKGRFTISRDNSKNTLYLQMNSLRAEDTAVYYCARKRWYGMDVWGQGTTVTVSS
VL: SYELTQPPSVSVAPGKTARITCGGNNIGVKSVHWYQQKPGQAPVLVVYDDSDRSPGIPERFSGSNSGNTATLTISRVEAGDEADYYCQVWDSRTYVFGTGTKLTVL
Consider B3, for which the Kd turned out to be 0.059 nM, the koff stood at 1.1e-05 s⁻¹ and the on-rate constant (kon) is 180000 M⁻¹ s⁻¹.

B4: A11 (scFv, V domains shown)
VH: EVQLVESGGGVVQPGRSLRLSCAASGFTFSSRSMNWVRQAPGKGLEWVSAISGSGSTVYYADSVKGRFTISRDNSKNTLYLQMNSLRAEDTAVYYCARKRWYGMDVWGQGTTVTVSS
VL: SYELTQPPSVSVAPGKTARITCGGNNIGSKSVHWYQQKPGQAPVLVVYDDSDRPSGIPERFSGSNSGNTATLTISRVEAGDEADYYCQVWDRGMIFGTGTKLTVL
Take B4: the Kd amounted to 0.06 nM, the koff was 1.1e-05 s⁻¹ and the kon worked out at 190000 M⁻¹ s⁻¹.

B5: B09 (scFv, V domains shown)
VH: EVQLVESGGGVVQPGRSLRLSCAASGFTYSSRAMNWVRQAPGKGLEWVSAISSSGTTTYYADSVKGRFTISRDNSKNTLYLQMNSLRAEDTAVYYCARKRWYGMDVWGQGTTVTVSS
VL: SYELTQPPSVSVAPGKTARITCGGNNIGSKSVHWYQQKPGQAPVLVVYDDSDRPSGIPERFSGSNSGNTATLTISRVEAGDEADYYCQVWDRGMIFGTGTKLTVL
Turning to B5, the Kd came to 0.118 nM, the koff amounted to 2.5e-05 s⁻¹ and the kon was determined as 210000 M⁻¹ s⁻¹.

B6: B04 (scFv, V domains shown)
VH: EVQLVESGGGVVQPGRSLRLSCAASGFSFSSRAMNWVRQAPGKGLEWVSAVSGSGSGTYYADSVKGRFTISRDNSKNTLYLQMNSLRAEDTAVYYCARKRWYGMDVWGQGTTVTVSS
VL: SYELTQPPSVSVAPGKTARITCGGNNIGLKSVHWYQQKPGQAPVLVVYDDSDRPSGIPERFSGSNSGNTATLTISRVEAGDEADYYCQVWDRGMIFGTGTKLTVL
As for B6, the Kd came out at 0.172 nM, the dissociation rate constant (koff) was 2.7e-05 s⁻¹ and the kon was determined as 160000 M⁻¹ s⁻¹.

B7: B03 (scFv, V domains shown)
VH: EVQLVESGGGVVQPGRSLRLSCAASGFTFGDRAMNWVRQAPGKGLEWVSAISGSGSGTYYADSVKGRFTISRDNSKNTLYLQMNSLRAEDTAVYYCARKRWYGMDVWGQGTTVTVSS
VL: SYELTQPPSVSVAPGKTARITCGGNNIGMKSVHWYQQKPGQAPVLVVYDDSDRPSGIPERFSGSNSGNTATLTISRVEAGDEADYYCQVWDRGMIFGTGTKLTVL
Regarding B7, the Kd was 0.07 nM, the koff was 2.1e-05 s⁻¹ and the kon is 300000 M⁻¹ s⁻¹.

B8: B08 (scFv, V domains shown)
VH: EVQLVESGGGVVQPGRSLRLSCAASGFTFSDRAMNWVRQAPGKGLEWVSAISASGASRYYADSVKGRFTISRDNSKNTLYLQMNSLRAEDTAVYYCARKRWYGMDVWGQGTTVTVSS
VL: SYELTQPPSVSVAPGKTARITCGGNNIGSKSVHWYQQKPGQAPVLVVYDDSDRPSGIPERFSGSNSGNTATLTISRVEAGDEADYYCQVWDRGMIFGTGTKLTVL
In the case of B8, the dissociation constant (Kd) is 0.117 nM, the dissociation rate constant (koff) was 1.8e-05 s⁻¹ and the kon amounted to 150000 M⁻¹ s⁻¹.

B9: A05 (scFv, V domains shown)
VH: EVQLVESGGGVVQPGRSLRLSCAASGFTYSSRAMNWVRQAPGKGLEWVSAISGSGSNAYYADSVKGRFTISRDNSKNTLYLQMNSLRAEDTAVYYCARKRWYGMDVWGQGTTVTVSS
VL: SYELTQPPSVSVAPGKTARITCGGNNIGSKSVHWYQQKPGQAPVLVVYDDSDRPSGIPERFSGSNSGNTATLTISRVEAGDEADYYCQVWDRGMIFGTGTKLTVL
For the molecule B9, the dissociation constant (Kd) is 0.117 nM, the koff is 2.2e-05 s⁻¹ and the kon amounted to 190000 M⁻¹ s⁻¹.

B10: A12 (scFv, V domains shown)
VH: EVQLVESGGGVVQPGRSLRLSCAASGFTFDNRAMNWVRQAPGKGLEWVSAISSSGSTMYYADSVKGRFTISRDNSKNTLYLQMNSLRAEDTAVYYCARKRWYGMDVWGQGTTVTVSS
VL: SYELTQPPSVSVAPGKTARITCGGNNIGSKSVHWYQQKPGQAPVLVVYDDSDRPSGIPERFSGSNSGNTATLTISRVEAGDEADYYCQVWDSRTYVFGTGTKLTVL
For the molecule B10, the Kd was 0.139 nM, the koff worked out at 3.2e-05 s⁻¹ and the kon stood at 230000 M⁻¹ s⁻¹.

B11: A10 (scFv, V domains shown)
VH: EVQLVESGGGVVQPGRSLRLSCAASGFTFSSRSMNWVRQAPGKGLEWVSAISGTGYTTYYADSVKGRFTISRDNSKNTLYLQMNSLRAEDTAVYYCARKRWYGMDVWGQGTTVTVSS
VL: SYELTQPPSVSVAPGKTARITCGGNNIGSKSVHWYQQKPGQAPVLVVYDDSDRPSGIPERFSGSNSGNTATLTISRVEAGDEADYYCQVWDRGMIFGTGTKLTVL
For the molecule B11, the dissociation constant (Kd) amounted to 0.103 nM, the koff is 1.4e-05 s⁻¹ and the kon came out at 140000 M⁻¹ s⁻¹.

B12: B07 (scFv, V domains shown)
VH: EVQLVESGGGVVQPGRSLRLSCAASGFTFGDRAMNWVRQAPGKGLEWVSAISGSGATTYYADSVKGRFTISRDNSKNTLYLQMNSLRAEDTAVYYCARKRWYGMDVWGQGTTVTVSS
VL: SYELTQPPSVSVAPGKTARITCGGNNIGSKSVHWYQQKPGQAPVLVVYDDSDRPSGIPERFSGSNSGNTATLTISRVEAGDEADYYCQVWDRGMIFGTGTKLTVL
With B12, the Kd is 0.054 nM, the koff worked out at 1.8e-05 s⁻¹ and the kon was determined as 330000 M⁻¹ s⁻¹.

B13: A09 (scFv, V domains shown)
VH: EVQLVESGGGVVQPGRSLRLSCAASGFTFSSRSMNWVRQAPGKGLEWVSAISGSGLTSYYADSVKGRFTISRDNSKNTLYLQMNSLRAEDTAVYYCARKRWYGMDVWGQGTTVTVSS
VL: SYELTQPPSVSVAPGKTARITCGGNNIGSKSVHWYQQKPGQAPVLVVYDDSDRPSGIPERFSGSNSGNTATLTISRVEAGDEADYYCQVWDRGMIFGTGTKLTVL
For B13, the Kd was 0.074 nM, the koff was 1.1e-05 s⁻¹ and the kon amounted to 160000 M⁻¹ s⁻¹.

B14: B12 (scFv, V domains shown)
VH: EVQLVESGGGVVQPGRSLRLSCAASGFTFSDRAMNWVRQAPGKGLEWVSAISGTGASTYYADSVKGRFTISRDNSKNTLYLQMNSLRAEDTAVYYCARKRWYGMDVWGQGTTVTVSS
VL: SYELTQPPSVSVAPGKTARITCGGNNIGSKSVHWYQQKPGQAPVLVVYDDSDRPSGIPERFSGSNSGNTATLTISRVEAGDEADYYCQVWDRGMIFGTGTKLTVL
On to B14, for which the Kd turned out to be 0.084 nM, the koff was 2.8e-05 s⁻¹ and the kon amounted to 340000 M⁻¹ s⁻¹.

B15: A07 (scFv, V domains shown)
VH: EVQLVESGGGVVQPGRSLRLSCAASGFTFSSRSMNWVRQAPGKGLEWVSAISGSGSTVYYADSVKGRFTISRDNSKNTLYLQMNSLRAEDTAVYYCARKRWYGMDVWGQGTTVTVSS
VL: SYELTQPPSVSVAPGKTARITCGGNNIGSKSVHWYQQKPGQAPVLVVYDDSDRPSGIPERFSGSNSGNTATLTISRVEAGDEADYYCQVWDSRTYVFGTGTKLTVL
B15: the Kd was determined as 0.277 nM, the koff came to 4.7e-05 s⁻¹ and the kon turned out to be 170000 M⁻¹ s⁻¹.

B16: B11 (scFv, V domains shown)
VH: EVQLVESGGGVVQPGRSLRLSCAASGFTFTSRAMNWVRQAPGKGLEWVSAISGSGATAYYADSVKGRFTISRDNSKNTLYLQMNSLRAEDTAVYYCARKRWYGMDVWGQGTTVTVSS
VL: SYELTQPPSVSVAPGKTARITCGGNNIGSKSVHWYQQKPGQAPVLVVYDDSDRPSGIPERFSGSNSGNTATLTISRVEAGDEADYYCQVWDRGMIFGTGTKLTVL
In the case of B16, the Kd stood at 0.068 nM, the off-rate constant (koff) was determined as 1.2e-05 s⁻¹ and the kon amounted to 180000 M⁻¹ s⁻¹.

B17: B10 (scFv, V domains shown)
VH: EVQLVESGGGVVQPGRSLRLSCAASGFTFSTRAMNWVRQAPGKGLEWVSAISGTGDTTYYADSVKGRFTISRDNSKNTLYLQMNSLRAEDTAVYYCARKRWYGMDVWGQGTTVTVSS
VL: SYELTQPPSVSVAPGKTARITCGGNNIGSKSVHWYQQKPGQAPVLVVYDDSDRPSGIPERFSGSNSGNTATLTISRVEAGDEADYYCQVWGRYQMIFGTGTKLTVL
B17: the Kd worked out at 0.116 nM, the koff amounted to 2.9e-05 s⁻¹ and the kon stood at 260000 M⁻¹ s⁻¹.

B18: A02 (scFv, V domains shown)
VH: EVQLVESGGGVVQPGRSLRLSCAASGFTFTSRAMNWVRQAPGKGLEWVSAISYEGRTQYYADSVKGRFTISRDNSKNTLYLQMNSLRAEDTAVYYCARKRWYGMDVWGQGTTVTVSS
VL: SYELTQPPSVSVAPGKTARITCGGNNIGSKSVHWYQQKPGQAPVLVVYDDSDRPSGIPERFSGSNSGNTATLTISRVEAGDEADYYCQVWDRGMIFGTGTKLTVL
Take B18: the Kd turned out to be 0.039 nM, the off-rate (koff) was 1.1e-05 s⁻¹ and the kon was 280000 M⁻¹ s⁻¹.

B19: B06 (scFv, V domains shown)
VH: EVQLVESGGGVVQPGRSLRLSCAASGFTFSNKAMNWVRQAPGKGLEWVSAISGSGATTYYADSVKGRFTISRDNSKNTLYLQMNSLRAEDTAVYYCARKRWYGMDVWGQGTTVTVSS
VL: SYELTQPPSVSVAPGKTARITCGGNNIGVKAVHWYQQKPGQAPVLVVYDDSDRPSGIPERFSGSNSGNTATLTISRVEAGDEADYYCQVWDRGMIFGTGTKLTVL
As for B19, the equilibrium dissociation constant (Kd) was determined as 0.097 nM, the koff amounted to 1.7e-05 s⁻¹ and the kon stood at 170000 M⁻¹ s⁻¹.

Values taken from paper PMC9467613 (mAbs, 2022).
